Experimental data from patent US12269859B2, “Synthetic immune receptors and methods of use thereof” (Angeles Therapeutics, Inc., priority 2016, dated 2025).

System: target antigen-expressing cell line
Assay: Jurkat NFAT-GFP assay, coculture with target cell lines expressing the respective target antigen (summary Table 10A)
Format: cell-based, human
Design: key: The signs +/−, +, 2+ etc. after the name of the cell lines indicate the relative degree of positivity on the Jurkat-NFAT-GFP assay as measured by the % GFP positive cells; +: relative degree of positivity on the Jurkat-NFAT-GFP assay as measured by the % GFP positive cells; 2+: relative degree of positivity on the Jurkat-NFAT-GFP assay as measured by the % GFP positive cells
Settings: relative % GFP positive cells; for NFAT-GFP ASSAY Positive Cell lines: NALM6: SIR-expressing Jurkat-NFAT-GFP cells cocultured with NALM6; for NFAT-GFP ASSAY Positive Cell lines: RAJI: SIR-expressing Jurkat-NFAT-GFP cells cocultured with RAJI
Method in brief: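 Jurkat cells carrying an NFAT-driven GFP reporter and lentivirally expressing a SIR were cocultured with antigen-bearing target cells (E:T ~1:2) for about 4–18 h. GFP induction read by flow cytometry as % GFP+ cells, scored positive and graded (+/−, +, 2+) against parental Jurkat-NFAT-GFP cells.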

B1: 030817-E07 (protein)
chain: MALPVTALLLPLALLLHAARPEIVLTQSPSSLSASVGDRVTITCRASSSLSFMHWYQQKPGKAPKPWIYATSNLASGVPSRFSGSGSGTDYTLTISSLQPEDFATYFCHQWSSNPLTFGGGTKVEIKLEIQNPDPAVYQLRDSKSSDKSVCLFTDFDSQTNVSQSKDSDVYITDKCVLDMRSMDFKSNSAVAWSNKSDFACANAFNNSIIPEDTFFPSSDVPCDVKLVEKSFETDTNLNFQNLSVIGFRILLLKVAGFNLLMTLRLWSSRAKRSGSGVKQTLNFDLLKLAGDVESNPGPTSMDWIWRILFLVGAATGAHSFEQVQLVQSGAEVKKPGASVKVSCKASGYTFTSYNMHWVRQAPGQRLEWIGAIYPGNGDTSYNQKFKGRVTVTRDTSANTAYMELSSLKSEDTAVYYCARSHYGSNYVDYFDYWGQGTLVTVSSTREDLKNVFPPEVAVFEPSKAEIAHTQKATLVCLATGFYPDHVELSWWVNGKEVHSGVCTDPQPLKEQPALNDSRYCLSSRLRVSATFWQNPRNHFRCQVQFYGLSENDEWTQDRAKPVTQIVSAEAWGRADCGITSASYHQGVLSATILYEILLGKATLYAVLVSALVLMAMVKRKDSRGRAKRSGSGATNFSLLKQAGDVEENPGPSRGHMTEYKPTVRLATRDDVPRAVRTLAAAFADYPATRHTVDPDRHIERVTELQELFLTRVGLDIGKVWVADDGAAVAVWTTPESVEAGAVFAEIGPRMAELSGSRLAAQQQMEGLLAPHRPKEPAWFLATVGVSPDHQGKGLGSAVVLPGVEAAERAGVPAFLETSAPRNLPFYERLGFTVTADVEVPEGPRTWCMTRKPGA
- NFAT-GFP ASSAY Positive Cell lines: U266 (SIR-expressing Jurkat-NFAT-GFP cells cocultured with U266): U266 (+/−)

B2: 031417-N06 (protein)
chain: MALPVTALLLPLALLLHAARPQIVLSQSPAILSASPGEKVTMTCRASSSVSYMHWYQQKPGSSPKPWIYATSNLASGVPARFSGSGSGTSYSFTISRVEAEDAATYYCQQWTFNPPTFGGGTRLEIKRTVAALEIQNPDPAVYQLRDSKSSDKSVCLFTDFDSQTNVSQSKDSDVYITDKCVLDMRSMDFKSNSAVAWSNKSDFACANAFNNSIIPEDTFFPSSDVPCDVKLVEKSFETDTNLNFQNLSVIGFRILLLKVAGFNLLMTLRLWSSRAKRSGSGVKQTLNFDLLKLAGDVESNPGPTSMDWIWRILFLVGAATGAHSFEQAYLQQSGAELVRPGASVKMSCKASGYTFTSYNMHWVKQTPRQGLEWIGGIYPGNGDTSYNQKFKGKATLTVGKSSSTAYMQLSSLTSEDSAVYFCARYDYNYAMDYWGQGTSVTVSSASTREDLKNVFPPEVAVFEPSKAEIAHTQKATLVCLATGFYPDHVELSWWVNGKEVHSGVCTDPQPLKEQPALNDSRYCLSSRLRVSATFWQNPRNHFRCQVQFYGLSENDEWTQDRAKPVTQIVSAEAWGRADCGITSASYHQGVLSATILYEILLGKATLYAVLVSALVLMAMVKRKDSRGRAKRSGSGATNFSLLKQAGDVEENPGPSRGHMTEYKPTVRLATRDDVPRAVRTLAAAFADYPATRHTVDPDRHIERVTELQELFLTRVGLDIGKVWVADDGAAVAVWTTPESVEAGAVFAEIGPRMAELSGSRLAAQQQMEGLLAPHRPKEPAWFLATVGVSPDHQGKGLGSAVVLPGVEAAERAGVPAFLETSAPRNLPFYERLGFTVTADVEVPEGPRTWCMTRKPGA
- NFAT-GFP ASSAY Positive Cell lines: NALM6: (+)

B3: 031417-L06 (protein)
chain: MALPVTALLLPLALLLHAARPQIVLSQSPAILSASPGEKVTMTCRASSSVSYMHWYQQKPGSSPKPWIYATSNLASGVPARFSGSGSGTSYSFTISRVEAEDAATYYCQQWTFNPPTFGGGTRLEIKRTVAALEDLKNVFPPEVAVFEPSKAEIAHTQKATLVCLATGFYPDHVELSWWVNGKEVHSGVCTDPQPLKEQPALNDSRYCLSSRLRVSATFWQNPRNHFRCQVQFYGLSENDEWTQDRAKPVTQIVSAEAWGRADCGITSASYHQGVLSATILYEILLGKATLYAVLVSALVLMAMVKRKDSRGRAKRSGSGATNFSLLKQAGDVEENPGPTSMDWIWRILFLVGAATGAHSFEQAYLQQSGAELVRPGASVKMSCKASGYTFTSYNMHWVKQTPRQGLEWIGGIYPGNGDTSYNQKFKGKATLTVGKSSSTAYMQLSSLTSEDSAVYFCARYDYNYAMDYWGQGTSVTVSSASTRIQNPDPAVYQLRDSKSSDKSVCLFTDFDSQTNVSQSKDSDVYITDKCVLDMRSMDFKSNSAVAWSNKSDFACANAFNNSIIPEDTFFPSSDVPCDVKLVEKSFETDTNLNFQNLSVIGFRILLLKVAGFNLLMTLRLWSSRAKRSGSGVKQTLNFDLLKLAGDVESNPGPSRGHMTEYKPTVRLATRDDVPRAVRTLAAAFADYPATRHTVDPDRHIERVTELQELFLTRVGLDIGKVWVADDGAAVAVWTTPESVEAGAVFAEIGPRMAELSGSRLAAQQQMEGLLAPHRPKEPAWFLATVGVSPDHQGKGLGSAVVLPGVEAAERAGVPAFLETSAPRNLPFYERLGFTVTADVEVPEGPRTWCMTRKPGA
- NFAT-GFP ASSAY Positive Cell lines: RAJI: RAJI (+/−)

B4: 031517-W03 (protein)
chain: MALPVTALLLPLALLLHAARPLEGKPIPNPLLGLDSTGSGEDLKNVFPPEVAVFEPSKAEIAHTQKATLVCLATGFYPDHVELSWWVNGKEVHSGVCTDPQPLKEQPALNDSRYCLSSRLRVSATFWQNPRNHFRCQVQFYGLSENDEWTQDRAKPVTQIVSAEAWGRADCGITSASYHQGVLSATILYEILLGKATLYAVLVSALVLMAMVKRKDSRGRAKRSGSGATNFSLLKQAGDVEENPGPTSMALPVTALLLPLALLLHAARPEIVLTQSPSSLSASVGDRVTITCRASSSLSFMHWYQQKPGKAPKPWIYATSNLASGVPSRFSGSGSGTDYTLTISSLQPEDFATYFCHQWSSNPLTFGGGTKVEIKGGGGSGGGGSGGGGSQVQLVQSGAEVKKPGASVKVSCKASGYTFTSYNMHWVRQAPGQRLEWIGAIYPGNGDTSYNQKFKGRVTVTRDTSANTAYMELSSLKSEDTAVYYCARSHYGSNYVDYFDYWGQGTLVTVSSTREQKLISEEDGSGIQNPDPAVYQLRDSKSSDKSVCLFTDFDSQTNVSQSKDSDVYITDKCVLDMRSMDFKSNSAVAWSNKSDFACANAFNNSIIPEDTFFPSSDVPCDVKLVEKSFETDTNLNFQNLSVIGFRILLLKVAGFNLLMTLRLWSSRAKRSGSGVKQTLNFDLLKLAGDVESNPGPSRGHMTEYKPTVRLATRDDVPRAVRTLAAAFADYPATRHTVDPDRHIERVTELQELFLTRVGLDIGKVWVADDGAAVAVWTTPESVEAGAVFAEIGPRMAELSGSRLAAQQQMEGLLAPHRPKEPAWFLATVGVSPDHQGKGLGSAVVLPGVEAAERAGVPAFLETSAPRNLPFYERLGFTVTADVEVPEGPRTWCMTRKPGA
- NFAT-GFP ASSAY Positive Cell lines: RAJI: RAJI (+/−)

B5: 030917-Z01 (protein)
chain: MALPVTALLLPLALLLHAARPEIVLTQSPGTLSLSPGERATLSCRASSSVPYIHWYQQKPGQAPRLLIYATSALASGIPDRFSGSGSGTDFTLTISRLEPEDFAVYYCQQWLSNPPTFGQGTKLELKRLEDLKNVFPPEVAVFEPSKAEIAHTQKATLVCLATGFYPDHVELSWWVNGKEVHSGVCTDPQPLKEQPALNDSRYCLSSRLRVSATFWQNPRNHFRCQVQFYGLSENDEWTQDRAKPVTQIVSAEAWGRADCGITSASYHQGVLSATILYEILLGKATLYAVLVSALVLMAMVKRKDSRGRAKRSGSGATNFSLLKQAGDVEENPGPTSMDWIWRILFLVGAATGAHSFEEVQLVQSGAEVKKPGESLKLSCKGSGRTFTSYNMHWVRQMPGKGLEWMGAIYPLTGDTSYNQKSKLQVTISADKSISTAYLQWSSLKASDTAMYYCARSTYVGGDWQFDVWGKGTTVTVSSTRIQNPDPAVYQLRDSKSSDKSVCLFTDFDSQTNVSQSKDSDVYITDKCVLDMRSMDFKSNSAVAWSNKSDFACANAFNNSIIPEDTFFPSSDVPCDVKLVEKSFETDTNLNFQNLSVIGFRILLLKVAGFNLLMTLRLWSSRAKRSGSGVKQTLNFDLLKLAGDVESNPGPSRGHMTEYKPTVRLATRDDVPRAVRTLAAAFADYPATRHTVDPDRHIERVTELQELFLTRVGLDIGKVWVADDGAAVAVWTTPESVEAGAVFAEIGPRMAELSGSRLAAQQQMEGLLAPHRPKEPAWFLATVGVSPDHQGKGLGSAVVLPGVEAAERAGVPAFLETSAPRNLPFYERLGFTVTADVEVPEGPRTWCMTRKPGA
- NFAT-GFP ASSAY Positive Cell lines: NALM6: (+/−)
- NFAT-GFP ASSAY Positive Cell lines: RAJI: RAJI (2+), NALM6
